Values quoted from earlier work as cited in publication PMC12455044.

Target: thrombin (Homo sapiens) (UniProt P00734)

Kd: 10 nM
Substance: PAR-1 (from UniProt P25116)
